Results published in patent publication US20210371863, “HIGH EFFICIENCY APTAMER COMPLEX COMPRISING BRANCHED DNA AND APTAMER, AND USE THEREOF” (POSTECH ACADEMY-INDUSTRY FOUNDATION, published 2021).

Target: VEGF (hVEGF) (Homo sapiens, UniProt P15692-4 P15692-4:27-191)
Test: ELISA; remarkable capture efficiency after 4 h at room temperature, PD-10 column filtration; but p70 (FIG. 9) reports OA captured little hVEGF independent of serum incubation time
Conditions: quantified with hVEGF ELISA kit (Komabiotech); chain copies: 2; hairpin
Description: To confirm the hVEGF capture ability of OA, AA, and CA, each prepared sample was mixed with hVEGF solution for 4 hours at room temperature, and the mixed solution was filtered through a PD-10 column (Sephadex G-25, GE Healthcare, Sweden). The amount of non-purified hVEGF was measured by the hVEGF enzyme-linked immunosorbent assay kit (ELISA kit, Komabiotech) according to the manufacturer's guidelines (absorbance measurement at 490 nm by VICTOR3 V™ (Multilabel Counter, Perkin Elmer, Wellesley, Mass., USA)). The hVEGF capture ability of other samples such as OSc, ASc, and CSc was measured in the same way, and the results are shown in FIG. 10.

VEGF (hVEGF), sequence (P15692 other isoform, or with tags, fused parts or gaps): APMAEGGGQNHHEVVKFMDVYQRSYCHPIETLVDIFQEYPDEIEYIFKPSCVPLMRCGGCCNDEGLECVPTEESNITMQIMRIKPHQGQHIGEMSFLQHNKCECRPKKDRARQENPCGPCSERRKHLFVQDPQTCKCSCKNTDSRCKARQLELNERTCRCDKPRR

B1: OA (oligomeric hVEGF aptamer, Y_Vapt) (ssDNA)
DNA: AGCTTCAGGCGAGGAGCCCACCCCGTCTTCCAGACAAGAGTGCAGGGGTGGCGAGGAGCGGACA
binding result: binds
